Test results from paper PMC12757075 (2026).

Target: actin filament barbed end (Oryctolagus cuniculus, UniProt P68135)
Assay: pyrene-actin barbed-end elongation kinetic assay

B1: vinculin V1ab4 (protein)
chain: MPVFHTRTIESILEPVAQQISHLVIMHKEGEVHGKAIPDLTAPVAAVQAAVSNLVRVGKETVQTTEDQILKRDMPPAFIKVENACTKLVQAAQMLQSDPYSVPARDYLIHGSEGILSGTSDLLLTFDEAEVRKIIRVCKGILEYLTVAEVVETMEDLVTYTKNLGPGMTKMAKMIDERQQELTHQEHRVMLVNSMNTVKELLPVLISAMKIFVTTKNSKNQGIEEALKNRNFTVEKMSAEINEIIRVLQLTSWDEDAWASKDTEAMKRALASIDSKLNQAKGWLRDPSASPGDAGEQAIRQILDEAGKVGELCAGKERREILGTCKMLGQMTDQVADLRARGQGSSPVAMQKAQQVSQGLDVLTAKVENAARKLEAMTNSKQSIAKKIDAAQNWLADPNGGPEGEEQIRGALAEARKIAELCDDPKERDDILRSLGEISALTSKLADLRRQGKGDSPEARALAKQVATALQNLQTKTNRAVANSRPAKAAVHLEGKIEQAQRWIDNPTVDDRGVGQAAIRGLVAEGHRLANVMMGPYRQDLLAKCDRVDQLTAQLADLAARGEGESPQARALASQLQDSLKDLKARMQEAMTQEVSDVFSDTTTPIKLLAVAATAPPDAPNREEVFDERAANFENHSGKLGATAEKAAAVGTANKSTVEGIQASVKTARELTPQVVSAARILLRNPGNQAAYEHFETMKNQWIDNVEKMTGLVDEAIDTKSLLDASEEAIKKDLDKCKVAMANIQPQMLVAGATSIARRANRILLVAKREVEISKDPKFREAVKAASDELSKTISPMVMDAKAVAGNISDPGLQKSFLDSGYRILGAVAKVREAFQPQEPDFPPPPPDLEQLRLTDELAPPKPPLPEGEVPPPRPPPPEEKDEEFPEQKAGEVINQPMMMAARQLHDEARKWSSKPGIPAAEVGIGVVAEADAADAAGFPVPPDMEDDYEPELLLMPSNQPVNQPILAAAQSLHREATKWSSKGNDIIAAAKRMALLMAEMSRLVRGGSGTKRALIQCAKDIAKASDEVTRLAKEVAKQCTDKRIRTNLLQVCERIPTISTQLKILSTVKATMLGRTNISDEESEQATEMLVHNAQNLMQSVKETVREAEAASIKIRTDAGFTLRWVRKTPWYQ
Q: Which Kd does the source give for B1 here?
A: The Kd was roughly 1260 nM.
